Experiments:
mouse IL-17C [1] = molecular target: T1, mouse IL-17C (mouse, UniProt Q8K4C5 17-194); test: SET (ECL based), IgG, bivalent affinity, mGT454
T1 construct: R&D Systems #2306-ml-025 in the reporter assay; biotinylated in the screens; also called mIL-17C; mGT454
T1 sequence: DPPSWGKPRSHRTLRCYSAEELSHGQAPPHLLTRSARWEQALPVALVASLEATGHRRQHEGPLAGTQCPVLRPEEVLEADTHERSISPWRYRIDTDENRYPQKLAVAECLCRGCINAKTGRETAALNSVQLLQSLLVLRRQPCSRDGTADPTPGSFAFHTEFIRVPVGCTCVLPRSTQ
Protocol: (§1) Additionally monovalent Fab and bivalent IgG affinity was determined by SET. Therefore purified Fabs and IgGs were titrated on human or mouse IL-17C for EC₅₀ determination. The results confirmed the proposed avidity effect exerted by IgG antibodies forming mainly class III complexes.
(§2) Solution equilibrium titration (SET) was basically performed as described in the literature (Friquet et al., (1985) J. Immunol. Meth. 77: 305-19). In order to improve the sensitivity and accuracy of the SET method, it was transferred from classical ELISA to ECL based technology (Haenel et al. (2005) Anal Biochem. 339.1: 182-84).

human IL-17C [2] = molecular target: T2, human IL-17C (human, UniProt Q9P0M4 19-197); test: SET (ECL based), IgG, bivalent affinity, hGT454
T2 construct: Secreted homodimer; bought or made in-house; Novus #NBP1-42910 in the cell assays; also called hIL-17C; hGT454
T2 sequence: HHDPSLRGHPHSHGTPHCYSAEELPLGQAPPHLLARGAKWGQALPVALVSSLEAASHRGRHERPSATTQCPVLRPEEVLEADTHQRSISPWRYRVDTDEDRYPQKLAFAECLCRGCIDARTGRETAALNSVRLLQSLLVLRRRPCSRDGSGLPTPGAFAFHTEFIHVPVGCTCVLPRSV
Protocol: as §1, §2

mouse IL-17C [3] = molecular target: T1, mouse IL-17C; test: cell-based or functional assay
human IL-17C [4] = molecular target: T2, human IL-17C; test: cell-based or functional assay
cynomolgus IL-17C = molecular target: T3, cynomolgus IL-17C (cynomolgus monkey, UniProt Q9P0M4 19-197 (human entry), limits assumed); test: cell-based or functional assay
T3 chain: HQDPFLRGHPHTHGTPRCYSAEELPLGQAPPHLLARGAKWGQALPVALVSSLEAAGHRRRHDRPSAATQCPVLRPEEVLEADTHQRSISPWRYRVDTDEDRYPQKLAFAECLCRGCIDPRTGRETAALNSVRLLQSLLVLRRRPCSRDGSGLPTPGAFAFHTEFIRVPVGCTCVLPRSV

human IL-17C [5] = molecular target: T2, human IL-17C; test: MSD receptor binding inhibition: IgG with biotinylated IL-17C on coated IL17RE/Fc (head: hIL-17C-hIL17RE; text: mouse IL17RE/Fc)
Protocol: Purified IL-17C specific IgGs were tested in mIL-17 RE interaction assay. Therefore MA6000 384 well plates (Meso Scale Discovery, MSD) were coated with 30 μl mouse IL17RE/Fc chimeric protein at 75 ng/ml in PBS at 4° C. overnight. The next day a serial antibody dilution (concentrations from 0.001 to 100 nM) were pre-incubated for 30 min at RT with an equal volume of biotinylated IL-17C. After blocking of plates for 1 h with 2.5% BSA in PBST, previously formed antibody-ligand complexes were added for 1 h to coated IL17RE/Fc and receptor binding was detected via Streptavidin-ECL using MSD Sector Imager.

human IL-17C [6] = molecular target: T2, human IL-17C; test: cell-based or functional assay; remark: listed apart in the source
mouse IL-17C [7] = molecular target: T1, mouse IL-17C; test: SET (ECL based), Fab, monovalent affinity, mGT454
Protocol: as §1, §2

human IL-17C [8] = molecular target: T2, human IL-17C; test: SET (ECL based), Fab, monovalent affinity, hGT454
Protocol: as §1, §2

B1: mab_1 (IgG1) (antibody, V domains shown)
VH: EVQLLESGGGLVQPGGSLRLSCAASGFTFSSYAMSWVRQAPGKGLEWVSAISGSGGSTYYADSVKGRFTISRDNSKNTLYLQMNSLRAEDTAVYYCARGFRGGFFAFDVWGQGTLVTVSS
VL: SYELTQPPSVSVSPGQTASITCSGDKLGDKYAYWYQQKPGQSPVLVIYQDSKRPSGIPERFSGSNSGNTATLTISGTQAEDEADYYCQAWTFPLLTWVFGGGTKLTVLG
notes: Human IgG1 from the Ylanthia library, VH3-23 / Vlambda3-1, made in HKB11 cells
EC50 (mouse IL-17C [1]): 0.15 nM
EC50 (human IL-17C [2]): 0.017 nM
NF-kB reporter gene assay (IgG) IC50 [pM] (mouse IL-17C [3]): 46 pM
NF-kB reporter gene assay (IgG) IC50 [pM] (human IL-17C [4]): 29 pM
NF-kB reporter gene assay (IgG) IC50 [pM] (cynomolgus IL-17C): 24 pM
IC50 (human IL-17C [5]): 0.04 nM
NHEK assay IC50 [pM] (expression of DEFB4A) (human IL-17C [6]): 415 pM

B2: mab_1 Fab (Fab, V domains shown)
VH: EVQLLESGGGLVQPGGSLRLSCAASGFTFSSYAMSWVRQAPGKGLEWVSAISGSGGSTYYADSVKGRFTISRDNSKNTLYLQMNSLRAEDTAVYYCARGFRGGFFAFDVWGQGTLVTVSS
VL: SYELTQPPSVSVSPGQTASITCSGDKLGDKYAYWYQQKPGQSPVLVIYQDSKRPSGIPERFSGSNSGNTATLTISGTQAEDEADYYCQAWTFPLLTWVFGGGTKLTVLG
notes: His-tagged Fab made in E. coli; also called mab_1 (Fab format)
EC50 (mouse IL-17C [7]): 72 nM
EC50 (human IL-17C [8]): 4.8 nM

B3: mab_8 Fab (Fab, V domains shown)
VH: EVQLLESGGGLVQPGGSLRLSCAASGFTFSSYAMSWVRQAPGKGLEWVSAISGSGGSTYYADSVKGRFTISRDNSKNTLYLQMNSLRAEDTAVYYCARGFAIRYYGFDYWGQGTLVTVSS
VL: SYELTQPPSVSVSPGQTASITCSGDKLGDKYAYWYQQKPGQSPVLVIYQDSKRPSGIPERFSGSNSGNTATLTISGTQAEDEADYYCQVFTFPLVTTVFGGGTKLTVLG
notes: His-tagged Fab made in E. coli; also called mab_8 (Fab format)
EC50 (mouse IL-17C [7]): 490 nM
EC50 (human IL-17C [8]): 2.7 nM

B4: mab_8 (IgG1) (antibody, V domains shown)
VH: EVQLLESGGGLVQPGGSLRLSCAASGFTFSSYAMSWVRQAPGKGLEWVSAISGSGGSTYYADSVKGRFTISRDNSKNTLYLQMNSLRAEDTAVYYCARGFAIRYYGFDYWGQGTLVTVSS
VL: SYELTQPPSVSVSPGQTASITCSGDKLGDKYAYWYQQKPGQSPVLVIYQDSKRPSGIPERFSGSNSGNTATLTISGTQAEDEADYYCQVFTFPLVTTVFGGGTKLTVLG
notes: as for B1
EC50 (mouse IL-17C [1]): 3.35 nM
EC50 (human IL-17C [2]): 0.022 nM
NF-kB reporter gene assay (IgG) IC50 [pM] (mouse IL-17C [3]): 1770 pM
NF-kB reporter gene assay (IgG) IC50 [pM] (human IL-17C [4]): 42 pM
NF-kB reporter gene assay (IgG) IC50 [pM] (cynomolgus IL-17C): 39 pM
IC50 (human IL-17C [5]): 0.13 nM
NHEK assay IC50 [pM] (expression of DEFB4A) (human IL-17C [6]): 93 pM

— patent US20200010542A1 (MorphoSys, published 2020)
